Test results taken from patent US9096654B2, “Peptides capable of modulating the function of TIRC7” (CELLACT PHARMA GMBH, priority 2005, dated 2015).

Experiments:
PBMC = experiment: Mixed lymphocyte reaction (MLR): inhibition of proliferation of stimulated PBMC by TIRC7 derived peptides; type: cell-based; conditions: mitomycin-inactivated PBMC (stimulator), CFSE-stained PBMC (responder), 6 days incubation with peptide in PBS, pH 7.3
Procedure: As described in Example 1 herein, peptides were tested for their ability to inhibit proliferation of mitomycin-stimulated PBMCs.
Freshly isolated PBMC were inactivated with mitomycin (stimulator), or stained with CFSE (responder). Cells were incubated for 6 days with the peptides as described in FIG. 1, dissolved in PBS and titrated to pH 7.3. Subsequently, an in vitro assay, mixed lymphocyte reaction (MLR), was performed essentially as described in international applications WO99/11782 and WO03/025000 to analyze the potency of the tested TIRC7 derived peptides to inhibit the immune response. For all peptides shown in FIG. 1 substantial inhibition of proliferation could be observed.

activated T-cells = conditions: dose dependent, cited from earlier work

Molecule | inhibition of proliferation (PBMC) | suppression of proliferation of activated T-cells in MLR (activated T-cells; MLR) | suppression of proliferation of T-cells (activated T-cells; in response to alloactivation in a mixed lymphocyte culture or in response to mitogens)
D46M: synthetic peptide derived from the third extracellular domain of TIRC7 protein (SEQ ID NO: 3, FIG. 1) (DRQEENKAGLLDLPDASVNGWSSDEEKAGGLDDEEEAELVPSEVLM; TIRC7 peptide) | Particular advantageous |  | 
TIRC7: in vitro translated T-cell immune response cDNA 7 protein, involved in signal transduction of T-cell activation and/or proliferation (protein, UniProt Q13488 1-830, looked up, TIRC7 in vitro translated) V-type proton ATPase 116 kDa …: MGSMFRSEEVALVQLFLPTAAAYTCVSRLGELGLVEFRDLNASVSAFQRRFVVDVRRCEELEKTFTFLQEEVRRAGLVLPPPKGRLPAPPPRDLLRIQEETERLAQELRDVRGNQQALRAQLHQLQLHAAVLRQGHEPQLAAAHTDGASERTPLLQAPGGPHQDLRVNFVAGAVEPHKAPALERLLWRACRGFLIASFRELEQPLEHPVTGEPATWMTFLISYWGEQIGQKIRKITDCFHCHVFPFLQQEEARLGALQQLQQQSQELQEVLGETERFLSQVLGRVLQLLPPGQVQVHKMKAVYLALNQCSVSTTHKCLIAEAWCSVRDLPALQEALRDSSMEEGVSAVAHRIPCRDMPPTLIRTNRFTASFQGIVDAYGVGRYQEVNPAPYTIITFPFLFAVMFGDVGHGLLMFLFALAMVLAENRPAVKAAQNEIWQTFFRGRYLLLLMGLFSIYTGFIYNECFSRATSIFPSGWSVAAMANQSGWSDAFLAQHTMLTLDPNVTGVFLGPYPFGIDPIWSLAANHLSFLNSFKMKMSVILGVVHMAFGVVLGVFNHVHFGQRHRLLLETLPELTFLLGLFGYLVFLVIYKWLCVWAARAASAPSILIHFINMFLFSHSPSNRLLYPRQEVVQATLVVLALAMVPILLLGTPLHLLHRHRRRLRRRPADRQEENKAGLLDLPDASVNGWSSDEEKAGGLDDEEEAELVPSEVLMHQAIHTIEFCLGCVSNTASYLRLWALSLAHAQLSEVLWAMVMRIGLGLGREVGVAAVVLVPIFAAFAVMTVAILLVMEGLSAFLHALRLHWVEFQNKFYSGTGYKLSPFTFAATDD |  | significantly suppressed | efficiently suppress
A61V: synthetic peptide derived from the third extracellular domain of TIRC7 protein (SEQ ID NO: 4, FIG. 1) (TIRC7 peptide) ADRQEENKAGLLDLPDASVNGWSSDEEKAGGLDDEEEAELVPSEVLMHQAIHTIEFCLGCV | Particular advantageous |  | 
